Results as given in patent US20220048967A1 (published 2022).
Changes are numbered by the printed parent chain. Numbered stars: 1 amine (or outer) side, 2 acyl side, 3 side chain; on linkers, the order of the positions; unused ones are H or OH. Square brackets hold non-standard residues; d marks the D form. Side chains are listed from the residue outwards. Ends that are not written are not given here. * marks the point of attachment. C20 diacid = O=C(O)CCCCCCCCCCCCCCCCCCC(=O)*; αMePhe(2-F) = C[C@](N)(Cc1ccccc1F)C(=O)O; γGlu = O=C(O)[C@H](CCC(=O)[*:2])N[*:1]; αMeF = C[C@](N)(Cc1ccccc1)C(=O)O; AEEA = NCCOCCOCC(=O)O; Aib = CC(C)(N)C(=O)O

Tests used:
[1] = biological target: T1, human gastric inhibitory peptide receptor (GIPR) (human, UniProt P48546 22-466); experiment: cell-based or functional assay
T1 sequence (looked up): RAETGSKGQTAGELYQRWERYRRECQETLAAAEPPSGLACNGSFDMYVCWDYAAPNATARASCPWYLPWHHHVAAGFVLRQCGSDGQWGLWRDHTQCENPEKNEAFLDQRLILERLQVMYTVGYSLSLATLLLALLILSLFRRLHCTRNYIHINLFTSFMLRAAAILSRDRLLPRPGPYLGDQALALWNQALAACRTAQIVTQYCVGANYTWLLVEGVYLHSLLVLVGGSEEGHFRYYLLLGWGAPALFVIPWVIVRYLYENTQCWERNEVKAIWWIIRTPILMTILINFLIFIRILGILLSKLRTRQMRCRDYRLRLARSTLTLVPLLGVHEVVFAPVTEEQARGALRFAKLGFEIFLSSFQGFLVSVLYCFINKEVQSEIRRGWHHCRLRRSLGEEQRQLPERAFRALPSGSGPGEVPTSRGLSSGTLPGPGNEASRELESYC

[2] = biological target: human GLP-1 receptor (GLP-1R) (human, UniProt P43220 24-463); experiment: cell-based or functional assay

B1: Example 165 (peptide)
peptide: Y[Aib]EGT[αMePhe(2-F)]TSDHSI[αMeF]LDEK([AEEA-AEEA-γGlu-C20 diacid])AQ[Aib]TFI[dE][αMeF]LI[dE]GGPSSGAPPPS-NH2
modifications: N-terminus assumed
SMILES: CC[C@H](C)[C@H](NC(=O)[C@H](CC(C)C)NC(=O)[C@](C)(Cc1ccccc1)NC(=O)[C@@H](CCC(=O)O)NC(=O)[C@@H](NC(=O)[C@H](Cc1ccccc1)NC(=O)[C@@H](NC(=O)C(C)(C)NC(=O)[C@H](CCC(N)=O)NC(=O)[C@H](C)NC(=O)[C@H](CCCCNC(=O)COCCOCCNC(=O)COCCOCCNC(=O)CC[C@H](NC(=O)CCCCCCCCCCCCCCCCCCC(=O)O)C(=O)O)NC(=O)[C@H](CCC(=O)O)NC(=O)[C@H](CC(=O)O)NC(=O)[C@H](CC(C)C)NC(=O)[C@](C)(Cc1ccccc1)NC(=O)[C@@H](NC(=O)[C@H](CO)NC(=O)[C@H](Cc1c[nH]cn1)NC(=O)[C@H](CC(=O)O)NC(=O)[C@H](CO)NC(=O)[C@@H](NC(=O)[C@](C)(Cc1ccccc1F)NC(=O)[C@@H](NC(=O)CNC(=O)[C@H](CCC(=O)O)NC(=O)C(C)(C)NC(=O)[C@@H](N)Cc1ccc(O)cc1)[C@@H](C)O)[C@@H](C)O)[C@@H](C)CC)[C@@H](C)O)[C@@H](C)CC)C(=O)N[C@H](CCC(=O)O)C(=O)NCC(=O)NCC(=O)N1CCC[C@H]1C(=O)N[C@@H](CO)C(=O)N[C@@H](CO)C(=O)NCC(=O)N[C@@H](C)C(=O)N1CCC[C@H]1C(=O)N1CCC[C@H]1C(=O)N1CCC[C@H]1C(=O)N[C@@H](CO)C(N)=O
- hGIPR cAMP EC50 ratio [1]: 0.172
- hGIPR cAMP Rel EC50 [1]: 1.04 nM
- hGLP1R cAMP EC50 ratio [2]: 0.01
- hGLP1R cAMP Rel EC50 [2]: 5.81 nM

B2: Example 168 (peptide)
peptide: YXEGTXTSDHSIXLDEKAQXTFIXYLIEGGPSSGAPPPS
modifications: Y-Aib-EGT-αMeF(2F)-TSDHSI-αMeF-LDEK((2-[2-(2-Amino-ethoxy)-ethoxy]-acetyl)2-(γ-Glu)-CO-(CH2)18-CO2H)AQ-Aib-TFI-(D-Glu)-YLIEGGPSSGAPPPS-NH2
- hGIPR cAMP EC50 ratio [1]: 0.313
- hGIPR cAMP Rel EC50 [1]: 0.572 nM
- hGLP1R cAMP EC50 ratio [2]: 0.0323
- hGLP1R cAMP Rel EC50 [2]: 1.8 nM

B3: Example 176 (peptide)
peptide: B2 peptide
modifications: Y-Aib-EGT-αMeF(2F)-TSDHSI-αMeF-LDEK((2-[2-(2-Amino-ethoxy)-ethoxy]-acetyl)2-(ϵK)-CO-(CH2)16-CO2H)AQ-Aib-TFI-(D-Glu)-YLIEGGPSSGAPPPS-NH2
- hGIPR cAMP EC50 ratio [1]: 0.201
- hGIPR cAMP Rel EC50 [1]: 0.523 nM
- hGLP1R cAMP EC50 ratio [2]: 0.0427
- hGLP1R cAMP Rel EC50 [2]: 1.07 nM

B4: Example 170 (peptide)
peptide: B2 peptide
modifications: Y-Aib-EGT-αMeF(2F)-TSDHSI-αMeF-LDEK((2-[2-(2-Amino-ethoxy)-ethoxy]-acetyl)2-(γ-Glu)-CO-(CH2)14-CO2H)AQ-Aib-TFI-(D-Glu)-YLIEGGPSSGAPPPS-NH2
- hGIPR cAMP EC50 ratio [1]: 0.185
- hGIPR cAMP Rel EC50 [1]: 0.569 nM
- hGLP1R cAMP EC50 ratio [2]: 0.00438
- hGLP1R cAMP Rel EC50 [2]: 10.4 nM

B5: Example 171 (peptide)
peptide: B2 peptide with E16X
modifications: Y-Aib-EGT-αMeF(2F)-TSDHSI-αMeF-LD-Orn-K((2-[2-(2-Amino-ethoxy)-ethoxy]-acetyl)2-(γ-Glu)-CO-(CH2)18-CO2H)AQ-Aib-TFI-(D-Glu)-YLIEGGPSSGAPPPS-NH2
- hGIPR cAMP EC50 ratio [1]: 0.471
- hGIPR cAMP Rel EC50 [1]: 0.223 nM
- hGLP1R cAMP EC50 ratio [2]: 0.0609
- hGLP1R cAMP Rel EC50 [2]: 0.75 nM

B6: Example 175 (peptide)
peptide: B2 peptide
modifications: Y-Aib-EGT-αMeF(2F)-TSDHSI-αMeF-LDEK((2-[2-(2-Amino-ethoxy)-ethoxy]-acetyl)2-(ϵK)-CO-(CH2)18-CO2H)AQ-Aib-TFI-(D-Glu)-YLIEGGPSSGAPPPS-NH2
- hGIPR cAMP EC50 ratio [1]: 1.19
- hGIPR cAMP Rel EC50 [1]: 0.0881 nM
- hGLP1R cAMP EC50 ratio [2]: 0.0412
- hGLP1R cAMP Rel EC50 [2]: 1.11 nM

B7: Example 177 (peptide)
peptide: B2 peptide with T21H
modifications: Y-Aib-EGT-αMeF(2F)-TSDHSI-αMeF-LDEK((2-[2-(2-Amino-ethoxy)-ethoxy]-acetyl)2-(γ-Glu)-CO-(CH2)16-CO2H)AQ-Aib-HFI-(D-Glu)-YLIEGGPSSGAPPPS-NH2
- hGIPR cAMP EC50 ratio [1]: 0.0749
- hGIPR cAMP Rel EC50 [1]: 1.4 nM
- hGLP1R cAMP EC50 ratio [2]: 0.00673
- hGLP1R cAMP Rel EC50 [2]: 6.79 nM

B8: Example 178 (peptide)
peptide: B2 peptide with T21H
modifications: Y-Aib-EGT-αMeF(2F)-TSDHSI-αMeF-LDEK((2-[2-(2-Amino-ethoxy)-ethoxy]-acetyl)2-(γ-Glu)-CO-(CH2)14-CO2H)AQ-Aib-HFI-(D-Glu)-YLIEGGPSSGAPPPS-NH2
- hGIPR cAMP EC50 ratio [1]: 0.0341
- hGIPR cAMP Rel EC50 [1]: 3.08 nM
- hGLP1R cAMP EC50 ratio [2]: 0.00349
- hGLP1R cAMP Rel EC50 [2]: 13.1 nM

B9: Example 169 (peptide)
peptide: B2 peptide
modifications: Y-Aib-EGT-αMeF(2F)-TSDHSI-αMeF-LDEK((2-[2-(2-Amino-ethoxy)-ethoxy]-acetyl)2-(γ-Glu)-CO-(CH2)16-CO2H)AQ-Aib-TFI-(D-Glu)-YLIEGGPSSGAPPPS-NH2
- hGIPR cAMP EC50 ratio [1]: 0.122
- hGIPR cAMP Rel EC50 [1]: 0.86 nM
- hGLP1R cAMP EC50 ratio [2]: 0.0136
- hGLP1R cAMP Rel EC50 [2]: 3.37 nM

B10: Example 173 (peptide)
peptide: B2 peptide with E16X
modifications: Y-Aib-EGT-αMeF(2F)-TSDHSI-αMeF-LD-Dap-K((2-[2-(2-Amino-ethoxy)-ethoxy]-acetyl)2-(γ-Glu)-CO-(CH2)18-CO2H)AQ-Aib-TFI-(D-Glu)-YLIEGGPSSGAPPPS-NH2
- hGIPR cAMP EC50 ratio [1]: 0.179
- hGIPR cAMP Rel EC50 [1]: 0.586 nM
- hGLP1R cAMP EC50 ratio [2]: 0.0373
- hGLP1R cAMP Rel EC50 [2]: 1.23 nM

B11: Example 174 (peptide)
peptide: B2 peptide
modifications: Y-Aib-EGT-αMeF(2F)-TSDHSI-αMeF-LDEK((2-[2-(2-Amino-ethoxy)-ethoxy]-acetyl)2-CO-(CH2)18-CO2H)AQ-Aib-TFI-(D-Glu)-YLIEGGPSSGAPPPS-NH2
- hGIPR cAMP EC50 ratio [1]: 0.483
- hGIPR cAMP Rel EC50 [1]: 0.217 nM
- hGLP1R cAMP EC50 ratio [2]: 0.0968
- hGLP1R cAMP Rel EC50 [2]: 0.472 nM

B12: Example 172 (peptide)
peptide: B2 peptide with E16X
modifications: Y-Aib-EGT-αMeF(2F)-TSDHSI-αMeF-LD-Dab-K((2-[2-(2-Amino-ethoxy)-ethoxy]-acetyl)2-(γ-Glu)-CO-(CH2)18-CO2H)AQ-Aib-TFI-(D-Glu)-YLIEGGPSSGAPPPS-NH2
- hGIPR cAMP EC50 ratio [1]: 0.1
- hGIPR cAMP Rel EC50 [1]: 1.05 nM
- hGLP1R cAMP EC50 ratio [2]: 0.038
- hGLP1R cAMP Rel EC50 [2]: 1.2 nM

B13: Example 166 (peptide)
peptide: Y[Aib]EGT[αMePhe(2-F)]TSDHSI[αMeF]LDEK([AEEA-AEEA-γGlu-C20 diacid])AQ[Aib]TFI[dE]YLIEGG-NH2
modifications: N-terminus assumed
SMILES: CC[C@H](C)[C@H](NC(=O)[C@H](CC(C)C)NC(=O)[C@H](Cc1ccc(O)cc1)NC(=O)[C@@H](CCC(=O)O)NC(=O)[C@@H](NC(=O)[C@H](Cc1ccccc1)NC(=O)[C@@H](NC(=O)C(C)(C)NC(=O)[C@H](CCC(N)=O)NC(=O)[C@H](C)NC(=O)[C@H](CCCCNC(=O)COCCOCCNC(=O)COCCOCCNC(=O)CC[C@H](NC(=O)CCCCCCCCCCCCCCCCCCC(=O)O)C(=O)O)NC(=O)[C@H](CCC(=O)O)NC(=O)[C@H](CC(=O)O)NC(=O)[C@H](CC(C)C)NC(=O)[C@](C)(Cc1ccccc1)NC(=O)[C@@H](NC(=O)[C@H](CO)NC(=O)[C@H](Cc1c[nH]cn1)NC(=O)[C@H](CC(=O)O)NC(=O)[C@H](CO)NC(=O)[C@@H](NC(=O)[C@](C)(Cc1ccccc1F)NC(=O)[C@@H](NC(=O)CNC(=O)[C@H](CCC(=O)O)NC(=O)C(C)(C)NC(=O)[C@@H](N)Cc1ccc(O)cc1)[C@@H](C)O)[C@@H](C)O)[C@@H](C)CC)[C@@H](C)O)[C@@H](C)CC)C(=O)N[C@@H](CCC(=O)O)C(=O)NCC(=O)NCC(N)=O
- hGIPR cAMP EC50 ratio [1]: 0.504
- hGIPR cAMP Rel EC50 [1]: 0.355 nM
- hGLP1R cAMP EC50 ratio [2]: 0.0143
- hGLP1R cAMP Rel EC50 [2]: 4.08 nM

B14: Example 167 (peptide)
peptide: Y[Aib]EGT[αMePhe(2-F)]TSDHSI[αMeF]LDEK([AEEA-AEEA-γGlu-C20 diacid])AQ[Aib]TFI[dE]YLIEGGPSSG-NH2
modifications: N-terminus assumed
SMILES: CC[C@H](C)[C@H](NC(=O)[C@H](CC(C)C)NC(=O)[C@H](Cc1ccc(O)cc1)NC(=O)[C@@H](CCC(=O)O)NC(=O)[C@@H](NC(=O)[C@H](Cc1ccccc1)NC(=O)[C@@H](NC(=O)C(C)(C)NC(=O)[C@H](CCC(N)=O)NC(=O)[C@H](C)NC(=O)[C@H](CCCCNC(=O)COCCOCCNC(=O)COCCOCCNC(=O)CC[C@H](NC(=O)CCCCCCCCCCCCCCCCCCC(=O)O)C(=O)O)NC(=O)[C@H](CCC(=O)O)NC(=O)[C@H](CC(=O)O)NC(=O)[C@H](CC(C)C)NC(=O)[C@](C)(Cc1ccccc1)NC(=O)[C@@H](NC(=O)[C@H](CO)NC(=O)[C@H](Cc1c[nH]cn1)NC(=O)[C@H](CC(=O)O)NC(=O)[C@H](CO)NC(=O)[C@@H](NC(=O)[C@](C)(Cc1ccccc1F)NC(=O)[C@@H](NC(=O)CNC(=O)[C@H](CCC(=O)O)NC(=O)C(C)(C)NC(=O)[C@@H](N)Cc1ccc(O)cc1)[C@@H](C)O)[C@@H](C)O)[C@@H](C)CC)[C@@H](C)O)[C@@H](C)CC)C(=O)N[C@@H](CCC(=O)O)C(=O)NCC(=O)NCC(=O)N1CCC[C@H]1C(=O)N[C@@H](CO)C(=O)N[C@@H](CO)C(=O)NCC(N)=O
- hGIPR cAMP EC50 ratio [1]: 0.291
- hGIPR cAMP Rel EC50 [1]: 0.617 nM
- hGLP1R cAMP EC50 ratio [2]: 0.0487
- hGLP1R cAMP Rel EC50 [2]: 1.2 nM
